Experimental findings from the DeepSol protein solubility set are described below.

The data set can be described thus: soluble on expression in E. coli; label from the status in PepcDB or PDB records.
As for “MSLDFATEYVYPAFSELTGTDKIVAFGDHSHKCPIYVPQTPPCTAECPAGEDIRAINRFLNGTDPSDDPLKSAWETATDTNPFPAVMGRICPHPCQSKCNRGVHDESVAINAVEQVLGNYGIEHNLKLKGPGADTGKRVAIIGGGPAGLSAAYQLRRKGHAVTIYDANEKLGGMVLYGIMGYRVDRKVLEAEIGRIIELGVETKMGVTIGKDITLEQLEAEYDAVFIAVGAQKGRALPVPGFEGTPGATNAIDFLKSYEVLGDDIPVGKHVVVIGDGNVSMDVARLALRLGSQATIISGVPREEMACFENEFDDAKNEGTTMHFLTGTVEVLGGASGVTGLRCTKMVKKEKGEEGWNSPIPFLRYKSNGESFEIEADMVVAAIGQATDLSGLGSAASGPWLKVDRNFRIPGREKLFGGGDALKVDLITTAVGHGRKAAYAIDAFLKGEPMPEEPYREITKPHKQDLLYFLHTPQAKRTSIKPEVVVGNHDELLEALTPEQAVTESKRCMSCGFCFDCKQCVSFCPQEAITRFRDNPAGEKVYTNYAKCVGCHLCSLVCPCGYIQMGMGDGEGHHHHHH”, the “soluble on expression in E. coli” value is listed as “not soluble”.

Take “MSLDGTVLVADDDRTIRTVLTQALTRAGCKVHATSSLTTLMRWVAEGKGDVVISDVVMPDGNGLEMLPKIAQDRPGLPVIVISAQNTIMTAIQAAEAEAYDYLPKPFDLPDLMKRTARALEQKRRTVSSEPREEGAERPDELPLVGRTPAMQALYRLVAKVMNTDLPVMISGESGTGKSLIARTIHDFSDRRTLPFISVTASDLMDLEGPARVLARVKGGTLLIDEIADIGDELQGRIVRMMDAPGDYVPRFMATSQGDPARAMEAGKLRRDLYYRLCGAPIHVPALRERVDDIPLLTEYFLAKAERDGAPKRWLGAGAAELFRIYSWPGNVRQLENAVRRLSLISRAEEISRTEVEQVLGNQPELEPALGGRGDSEKLSASVARHLQRYFDLHGNVLPPPGLYQRILREVEAPLIEIALEASGGNQAKCADLLGINRNTLRKKITDLDIEVTREGHHHHHH”: the “soluble on expression in E. coli” value is given as “soluble”. With “MSLDKWEMERTDITMKHKLGGGQFGEVYEGVWKKYSLTVAVKTLKEDTMEVEEFLKEAAVMKEIKHPNLVQLLGVCTREPPFYIITEFMTYGNLLDYLRECNRQEVSAVVLLYMATQISSAMEYLEKKNFIHRDLAARNCLVGENHLVKVADFGLSRLMTGDTYTAHAGAKFPIKWTAPESLAYNKFSIKSDVWAFGVLLWEIATYGMSPYPGIDPSQVYELLEKDYRMERPEGCPEKVYELMRACWQWNPSDRPSFAEIHQAFETMFQESSISDEVEKELGKRGEGHHHHHH” the entry was “soluble”; with “MSLDLKITNGFYDPSHLSYEVVERKGLGHPDTLADGIAEQIEIDYSLYCLDKFGVIPHHNFDKIIIRGGHSVQDFGGSDFIEPIKIIFLGRASKKCFNSSIPLFKIQKKAATKYLNRILPNLDVENYVEFETLTSDFTTKTNWFSPEAIEDLPEYLDVPKANDTATMISYWPLTISEELALMIEGYFYKLDKNELPTPRFTKMGGDIKVMVVRNDLEYSIRINFPLISKFFNNDIESQLYVDKHVEKIKKYIEQKYKNISFSIDYHYYLTTTGSCIDFGEEGAVGRGNKTHGIISSFRPNTMEAPAGKNCTYFVGKVWGFLSDTIAKEIYEAFNTPCQIIMQLNIGSKLYRPTHLFIQTEESVDQERVLEIVNRHLNNGKQNTNLILSTQHFIPKTNVYDGEGHHHHHH”, “soluble”.

“MSLDLNQIKAVVFDLEGTLLDRVKSREKFIEEQYERFHDYLIHVQLADFKKAFIELDDDEDNDKPDLYKEIIKRFHVDRLTWKDLFNDFEMHFYRYVFPYYDTLYTLEKLSQKGFQIGVIANGKSKIKQFRLHSLGLMHVINYLSTSETVGFRKPHPKIFEDMIDQLGVLPEQIMYVGDDALNDVAPARAMGMVSVWYKQEDAEIEPLEEEVDFTITTVEELLTILPIKNDNKGENYGSIYEGHHHHHH”: the “soluble on expression in E. coli” value is reported as “soluble”. With “MSLDLPAHARVVIVGGGVMGVGLAYHLAHEGWGGDTVLLEKAELTSGSTWHAAGQITHSTSSFGLGKCVDYNIGLYSGKLEAETGQAVTWHGCGSFRLAYTEDEMDWLRHTLSVGRSLGFNIELVGPKRIAELHPFYNLDGVLGALHTPDDGHVDPTNVTMAMAAGARAKGVRIFRHTCATNITQGANGEWVVETGKGTITCEHVVNAGGTYARQMGEWSGLQLPMTSMTHHYFVTEPVPEFQSLDRELPVIRDDRKVSGYIRMEQKRGLIGIYEKANPNAVWIDECPWDYENWLFDADYDRVMPWLEESLNRMPIFADLGIQREVHGAISHPPDGNPLIGPAPGVRNYWCCCGTQIGIGWGPGLSRELARWIVHGAADISMRDFDPRRFGAYATKDWQVIKAREDYCLRHEIPFPHFNRLAGRPVKPSPLYDRLKEKGAVYEEVYGHERPRWFARGIEQRDHYGFGRTPVHDMVATECAAVRSAAGIMDISAFTRVEVSGPDAGALLDRLTANRLPQKPGGIALTHMLNRRGRIELETTVVKLDEDRFYLVCAAFFEQRLLDHLAAHRGTADITVRNLSTDWAALALNGPHARDILAACTEADLSNARFKWLTAQQITVAGHSLWALRMSYAGELGWELHIPRDHALAVYDALWAAGQRYGLTDYGSFAMNALRMEKAFKGAGELTNEVTLAEADVLRFARTDKDYLGRDKTLNAGNLPWVCAYLEIAPDGRFDGNGGEAVLLDGKVVGSTASVAYGHTVGKILAFAYVKPQVNVPGTEVEVIIAGNPRKGRILGAPAYDPDSTKPRADAEGHHHHHH” the entry was “soluble”; with “MSLDLQLYLSNLANQIDRETGIGDVPLVILLDDLSEAGSISELVNGALTCKYHKPYIIGTTNQPVKMTPNHGLHLSFRRMLTFSNNVEPANGFLVRYLRRKLVESDSDINANKEELLRVLDWVPKLWYHLHTFLEKHSTSDFLIGGPCFFLSCPIGIEDFRTWFIDLWNNSIIPYLQEGAKDGIKVHGQKAAWEDPVEWVRDTLPWPSAQQDDSTPSSLDSDPLMAMLLKLQEAANYIESPDRETILDPNLQATLEGHHHHHH”, “soluble”. With “MSLDNDIFKLNVYIKNIDTSKSNLRYTEGYLQSLTNILTRAKEIAIQGASGTYESDDKKMISKEVNALLEDVVAIANAKGPDGYSIFSGTKIDSEAFKVTRENKISKTSKDGAGPQIIKVEYNGNQAEKKTEVYNDIHMSNNYPGNVIFFLQNQNIISSINTNGFAVKENTKIYIDNIEIGLTAGDTALDIVAKINESSAPVEASIDPVLNSLSIKTTTPHQIWITEEKESNVLQTLGILTKNNDTKLPPYNLSSSTEVRSRSIFDALIELRDTLYNNKEELVGSRSLAEIDESLKRLLISVADLGAKENRLDRSYERISKEAADMKEDMIQYTDLDVTKAITNLNMASLAYQVSIGISAKIMQTTLLDFIKEGHHHHHH” the entry was “not soluble”; with “MSLDNQPLIVIYDEGAALPKDIVTELNGVAPLVLVINSNEHTRERISYFSRFGHVVDGSDIARAVSELAHLNPAGIVTFSERALRLTATLAKHLNLPFHNLETVYRLTDKYKQRVALQEAGIESIRFYLINTVSDWEQAVEQVCLPAVLKPAYGGGSIDTYLIEDPQTGKSLVEKLLSNKQVGFDGGRSLVLEEFLQGRPSLPFGDYVSVESLVVNGEIKHINVTGKMPLSPPFREYGHIWPSVLSDSEQNQIYALTSSAINVLGVNRGITHTELKLTEQGPRIIEVNGRVGGGINEMAKISLNISLLEMAARLALGKMIDEGHHHHHH”, “not soluble”; with “MSLDQAIRRNPNVPVVVRGWLHKQDSSGMRLWKRRWFVLADYCLFYYKDSREEAVLGSIPLPSYVISPVAPEDRISRKYSFKAVHTGMRALIYNSSTAGSQAEQSGMRTYYFSADTQEDMNAWVRAMNQAAQVLSRSSLKRDMEKVERQAVPQANHTEGHHHHHH”, “soluble”. With “MSLDRGVQWVLMGAPGAWRHVFAERLSKLLEVPHISMGSLVRQELNPRSSLYKEIASAVNERKLVPKSVVFALLSKRLEEGYARGETGFILHGIPRTRFQAETLDQIAQIDLVVNLKCSEDHLVNRNETALPQQEFLGSMLHSPVAINARRESVGVYAQEVEEYYRKQRKLLDFHVGGATSADTWQGLLAALHLKQVNLTTSQKLTEGHHHHHH” the entry was “not soluble”. Take “MSLDRVEVLGVEFVEFTADQTEAEALGSLLGAMGFRAVASHREKAVTLWRQGCDHRGINVVINTEQKGFAHSSYLVHGASAYAIGLKVPDASAAVERARALGAEIFLPESGEGEGAMAAIRGMGGGLIYFVDEIDDVWSREFVAPGDDRQPAATLVAIDHVAQSMKEEQLPSWLLFYTSILDADKLAQVDIVDPAGLVRSQVVENASGTLRLTLNGADNHRTLAGHFIAESFGSGVQHVAFRTDDIFEAAEHMRRSGFRALAISRNYYDDIEVRFALEPGFVDRLRDENILYDRDEDGEYFQIYGPTFGEGFFFEIVERRSGYRGYGAANAPFRIAAQKRCLRPAGMPAEGSSRVDLQVCRPKKGIITITTDPNSSSVDKLAAALEHHHHHH”: the “soluble on expression in E. coli” value is recorded as “soluble”. Then “MSLDSNTVAVNPDSLILKRFLKTNQLNGIMIVTGPDGKAQVFSNQSKVDGSPVSIKDYFPLASLQKLITGVAIQQLIDKGKLSLNTPLSKYYPQIENSENITIQNLLTHTSGLADRKEVPQQVLTTQEQQLDFSLTNYRVTYRKKWKYANINYALLAGIISQISGQNYATYVRQHFLTAGKGWHFKKYIQIKDKSKLAALSVMDQSTTWDKLSKEVTSTFGAGDYASRPVDYWKFMMAFINDQFVPVSEYQRSMKMTSKSYYGGLYISQKMLHANGGGFDTYSCFAYSNPKTKQVMVLFITNGKYKRVKSLAAKAFKLYADSYALRKNETSEGHHHHHH”, with “soluble”; and “MSLDSRPKLPQTLSRGWGDQLIWTQTYEEALYKSKTSNKPLMIIHHLDECPHSQALKKVFAENKEIQKLAEQFVLLNLVYETTDKHLSPDGQYVPRIMFVDPSLTVRADITGRYSNRLYAYEPADTALLLDNMKKALKLLKTELEGHHHHHH”, with “soluble”; and “MSLDSTTIIIYGEKLSDSQRAEVKELLEISDQEMVEEHDVTGQDYADYINGNPRSNMYSSAGIILESQGAGLEVNIVTPENITEVTAEMYENALLTAGAENATVNVVSPVQVSGHSALTGIYKAYDVEGEQLDKERMELANEELNVATDLVDNGDVNQEEVSNLLTEIKKMIAEQNPATREDVEQIVSEQLDQLEINLSEQDRQMLVDLFDKMKDLEIDFGAVKEQLDSITNSIVEKAEDLGLDEGFWDKVANFFRDLFRSIGNLFGEGHHHHHH”, with “soluble”. With “MSLDVALAPPGPLASGGLRVTALGGISEIGRNMTIFEHLGRLLIIDCGVLFPGHDEPGVDLILPDLRHIEDRLDDIEALVLTHAHEDHIGAIPFLLKLRSDIPVVGSKFTLALVAAKCREHRIKPVFVEVVGGQSSRHGVFECEYFAVNHSIPDALTIAVYTGAGTVLHTGDIKLDQLPLDGRPTDLPGMSRLGDAGVDLFLCDSTNAEIPGVGPSESEVGPTLHRLIQGADGRVIVACFASNVDRVQQVIDAAVALGRRVSFVGRSMVRNMSIARDLGFLRVDDSHMIDIAAAEMMAPEQVVLITTGTQGEPMSALSRMSRGEHQSITLTSGDLVVLSSSLIPGNEEAVYGVIDALAKIGARVVTNAQARVHVSGHAYAGELLFLYNGVRPRQVMPVHGTEGHHHHHH” the entry was “soluble”.

In the case of “MSLDVDSKTLIHAGKLIDGKSDQVQSRISIVIDGNIISDIKKGFISSNDFEDYIDLRDHTVLPGLMDMHVHFGQEYQSKAQAPIKVEREMQAILATQHAYVTFKSGFTTVRQVGDSGLVAISLRDAINSGKLAGPRIFAAGKTIATTGGHADPTNGKAVDDYDYPVPEQGVVNGPYEVYAAVRQRYKDGADGIKITVTGGVLSVAKSGQNPQFTQEEVDAVVSAAKDYGMWVAVHAHGAEGMKRAIKAGVDSIEHGTFMDLEAMDLMIENGTYYVPTISAGEFVAEKSKIDNFFPEIVRPKAASVGPQISDTFRKAYEKGVKIAFGTDAGVQKHGTNWKEFVYMVENGMPAMKAIQSATMETAKLLRIEDKLGSIESGKLADLIAVKGNPIEDISVLENVDVVIKDGLLYEGHHHHHH”, the “soluble on expression in E. coli” value is listed as “soluble”.
